The star is where a group is joined. HSG = histamine succinyl glycyl group, O=C(CCC(=O)NCC(=O)*)NCCc1c[nH]cn1; DOTA = O=C(O)CN1CCN(CC(=O)O)CCN(CC(=O)*)CCN(CC(=O)O)CC1
Columns and labels:
[1] = tested on: 679 IgG; test: Binding of labeled peptide to excess 679 IgG by size exclusion HPLC; set-up: species or system murine; details: ^90Y labeled peptide
Procedure: The ^90Y (˜400 μCi/kit) was diluted to 1 mL in deionized water and added to the lyophilized kits. The kits were heated in a boiling water bath for 15 min, the vials were cooled to room temperature and the labeled peptides were evaluated by reverse phase HPLC (HPLC conditions: Waters Nova-Pak C-18, 8×100 mm RCM column eluted at 3 mL/min with a linear gradient from 100% (0.1% TFA in H2O) to 100% (90% CH3CN, 0.1% TFA, 10% H2O)).
The ^111In (˜300 μCi/kit) was diluted to 0.5 mL in deionized water and added to the lyophilized kits. The kits were heated in a boiling water bath for 15 min, the vials were cooled and 0.5 mL of 2.56×10^−5 M In in 0.5 M acetate buffer was added and the kits were again heated in the boiling water bath for 15 min. The labeled peptide vials were cooled to room temperature and evaluated by reverse phase HPLC (HPLC conditions: Waters Nova-Pak C-18, 8×100 mm RCM column eluted at 3 mL/min with a linear gradient from 100% (0.1% TFA in H2O) to 100% (90% CH3CN, 0.1% TFA, 10% H2O)).
The mixture was centrifuged and DTPA was added to a final concentration of 3 mM. After 15 min at room temperature, the final volume was raised to 1.0 mL with 0.1 M sodium acetate, pH 6.5. The amount of unbound isotope was determined by reverse phase HPLC and ITLC developed in saturated sodium chloride solution. […]

[2] = Immunoreactive fraction of ^99mTc-hMN-14 Fab′; type: binding
Procedure: (§1) Humanized MN-14 (hMN-14) Fab′-SH was prepared in a similar manner as described previously. ^99mTc-pertechnetate (30 mCi) was added directly to the lyophilized hMN-14-Fab′-SH (1.0 mg) and injected in animals within 30 minutes. This product had 3.0% unbound ^99mTc by ITLC and an immunoreactive fraction of 92%.

[3] = tested on: GW-39 tumor; test: Tumor/nontumor ratios for directly labeled ^99mTc-hMN-14 Fab′; type: in vivo, nude mice; details: 3 h after injection
Procedure: as §1
Female NCr nude mice Charles River Laboratories, Inc., Fredrick Md. or Taconic, Germantown, N.Y.) approximately 6 weeks of age were implanted subcutaneously with 0.2 ml of this suspension. Two to three weeks after implantation of tumors, animals were injected with the radiolabeled peptide alone, or for pretargeting, with the bsMAb followed 1 to 2 days later with the radiolabeled peptide. […] At the designated times after the peptide injection, animals were anesthetized, bled by cardiac puncture, and then euthanized prior to necropsy. Tissues were removed, weighed and counted by gamma scintillation using appropriate windows for each radionuclide along with standards prepared from the injected materials. When dual isotope counting was used, appropriate backscatter correction was made. GI tissues (stomach, small intestine and large intestine were weighed and counted with their contents. Data are expressed as the percent injected dose per gram tissue (% ID/g) and the ratio of the percentages in the tumor to the normal tissues (T/NT). All values presented in the tables and figures represent the mean and standard deviation of the calculated values with the number of animals used for each study provided therein.

[4] = mouse, in vivo; cited from earlier work
[5] = Enzymatic analysis of carboxylesterase-DTPA conjugate; type: biochemical, rabbit
Procedure: (§2) After 1 hour of incubation, the mixture is pre-purified on two 5-mL spin-columns (Sephadex G50/80 in 0.1 M sodium phosphate pH 7.3) to remove excess reagent and DMSO. The eluate is purified on a TSK 3000G Supelco column using 0.2 M sodium phosphate pH 6.8 at 4 ml/min. The fraction containing conjugate is concentrated on a Centricon-10™ concentrator, and buffer-exchanged with 0.1 M sodium acetate pH 6.5. […] Incorporation by HPLC and ITLC analyses is 97.7%.

[6] = tested on: hMN-14 Fab′×734 Fab′; test: HPLC complexation of In-111 carboxylesterase-DTPA with bi-specific antibody; type: binding; details: 20-fold molar excess of hMN-14 Fab′×734 Fab′
Procedure: as §2

## ^90Y-IMP-241: IMP 241 divalent HSG-DOTA peptide radiolabeled with ^90Y ({DOTA}-FK(HSG)YK(HSG)-NH2; not fully specified (residue 3); also: DOTA loaded with 90Y)
[1]
  binding to excess 679 IgG by size exclusion HPLC: binding to the antibody

## ^99mTc-hMN-14 Fab′: humanized MN-14 anti-CEA Fab′ directly radiolabeled with ^99mTc
[2]
  immunoreactive fraction: 92%
[3]; Blood
  Tumor/nontumor ratio: 1.0 ± 0.01
[3]; Kidney
  Tumor/nontumor ratio: 0.02 ± 0.001
[3]; Liver
  Tumor/nontumor ratio: 0.2 ± 0.02
[3]; Lungs
  Tumor/nontumor ratio: 0.7 ± 0.1
[3]; Spleen
  Tumor/nontumor ratio: 0.9 ± 0.4

## COc1cccc2c1C(=O)c1c(O)c3c(c(O)c1C2=O)C[C@@](O)(C(=O)CO)C[C@@H]3O[C@H]1C[C@H](N)[C@H](O)[C@H](C)O1 [Doxorubicin]
[4]
  hepatobiliary clearance: ~95%

B1: Carboxylesterase-DTPA (conjugate)
chain: HPSAPPVVDTVHGKVLGKFVSLEGFAQPVAVFLGVPFAKPPLGSLRFAPPQPAESWSHVKNTTSYPPMCSQDAVSGHMLSELFTNRKENIPLKFSEDCLYLNIYTPADLTKRGRLPVMVWIHGGGLMVGGASTYDGLALSAHENVVVVTIQYRLGIWGFFSTGDEHSRGNWGHLDQVAALRWVQDNIANFGGDPGSVTIFGESAGGQSVSILLLSPLTKNLFHRAISESGVALLSSLFRKNTKSLAEKIAIEAGCKTTTSAVMVHCLRQKTEEELMEVTLKMKFMALDLVGDPKENTAFLTTVIDGVLLPKAPAEILAEKKYNMLPYMVGINQQEFGWIIPMQMLGYPLSEGKLDQKTATELLWKSYPIVNVSKELTPVATEKYLGGTDDPVKKKDLFLDMLADLLFGVPSVNVARHHRDAGAPTYMYEYRYRPSFSSDMRPKTVIGDHGDEIFSVLGAPFLKEGATEEEIKLSKMVMKYWANFARNGNPNGEGLPQWPAYDYKEGYLQIGATTQAAQKLKDKEVAFWTELWAKEAARPRETEHIEL
[5]
  enzymatic activity: 115 enzyme units/mg protein
[6]
  complexation with bi-specific antibody (HPLC): completely complexed

— US20060140858A1, “Drug pre-targeting by means of bi-specific antibodies and hapten constructs comprising a carrier peptide and the active agent(s)” (Immunomedics, Inc., priority 2002, published 2006)
